Measured values taken from US11666658B2, “Rifamycin analogs and antibody-drug conjugates thereof” (Regeneron Pharmaceuticals, Inc., priority 2018, dated 2023).

What was measured:
[1] = tested on: parental HEK293 cells; test: Electrochemiluminescence (ECL) antibody binding assay on cells, non-specific binding control; design: species or system human
Experimental: (§1) The ability of anti-MSR1 monoclonal antibodies to bind to human or monkey MSR1 expressing cells was determined using electrochemiluminescence (ECL) based detection.
(§2) Two cell lines overexpressing either human or monkey MSR1 were generated. To generate the human MSR1 overexpressing cell line, human embryonic kidney (HEK) 293 cells were engineered by transduction with hygromycin resistant lentiviral vector encoding full length human MSR1 (hMSR1, amino acids M1-L451 of accession number NP_619729.1) with a C-terminal Myc tag. The resulting cell line is referred to as HEK293.Myc.hMSR1. Similarly, to generate the monkey MSR1 overexpressing cell line, HEK293 cells were engineered by transfection with the geneticin resistant expression plasmid encoding full length monkey MSR1 (Macaca fascicularis, mfMSR1, amino acids M1-L451 of accession number XP_005562705.1). The resulting cell line is referred to as HEK293.mfMSR1 cells. To measure the ability of antibodies to bind to endogenously expressed human MSR1, THP-1 human monocytic cells were treated with 200 nM of phorbol 12-myristate 13-acetate (PMA; Sigma, Cat #P8139) for 72 hours to induce high MSR1 expression prior to antibody binding.
(§3) Luminescence intensity, measured in relative light units (RLU), was recorded to indicate the binding intensity of each antibody at the range of concentrations.

[2] = tested on: monkey MSR1 extracellular domain (HMM-mfMSR1); test: Surface plasmon resonance (Biacore 4000) binding kinetics, antibody-capture format, 25° C. and 37° C.; settings: analyte HMM-mfMSR1
monkey MSR1 extracellular domain (HMM-mfMSR1), sequence (as listed by the source): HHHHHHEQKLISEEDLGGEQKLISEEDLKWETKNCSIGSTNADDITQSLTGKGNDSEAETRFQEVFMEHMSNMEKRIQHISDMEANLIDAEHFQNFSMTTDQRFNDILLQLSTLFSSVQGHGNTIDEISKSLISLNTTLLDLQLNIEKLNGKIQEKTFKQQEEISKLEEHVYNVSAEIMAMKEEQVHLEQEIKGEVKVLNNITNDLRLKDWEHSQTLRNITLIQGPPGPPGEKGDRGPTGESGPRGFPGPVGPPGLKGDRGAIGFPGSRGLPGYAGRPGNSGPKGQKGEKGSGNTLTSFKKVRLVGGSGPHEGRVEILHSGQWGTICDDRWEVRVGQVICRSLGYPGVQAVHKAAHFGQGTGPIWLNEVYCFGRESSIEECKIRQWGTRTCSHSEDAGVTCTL
Experimental: (§4) Binding affinities and kinetic constants of human anti-MSR1 antibodies for different MSR1 reagents were determined by real-time surface plasmon resonance (Biacore 4000). All binding studies were performed in 10 mM HEPES, 150 mM NaCl, 3 mM EDTA, and 0.05% v/v Surfactant Tween-20, pH 7.4 (HBS-ET) running buffer at 25° C. and 37° C.
(§5) The association rate (ka) and dissociation rate (kd) were determined by fitting the real-time binding sensorgrams to a 1:1 binding model with mass transport limitation using Scrubber 2.0 c curve-fitting software. Binding dissociation equilibrium constant (KD) and dissociative half-life (t½) were calculated from the kinetic rates as: […]

[3] = target: T1, human MSR1 extracellular domain (His9-hMSR1) (Homo sapiens, UniProt P21757); test: as above; settings: analyte His9-hMSR1
T1 construct: human MSR1 extracellular domain expressed with a N-terminal nonahistidine tag; purchased R&D Systems 2708-MS
T1 sequence (P21757 77-451 limits assumed): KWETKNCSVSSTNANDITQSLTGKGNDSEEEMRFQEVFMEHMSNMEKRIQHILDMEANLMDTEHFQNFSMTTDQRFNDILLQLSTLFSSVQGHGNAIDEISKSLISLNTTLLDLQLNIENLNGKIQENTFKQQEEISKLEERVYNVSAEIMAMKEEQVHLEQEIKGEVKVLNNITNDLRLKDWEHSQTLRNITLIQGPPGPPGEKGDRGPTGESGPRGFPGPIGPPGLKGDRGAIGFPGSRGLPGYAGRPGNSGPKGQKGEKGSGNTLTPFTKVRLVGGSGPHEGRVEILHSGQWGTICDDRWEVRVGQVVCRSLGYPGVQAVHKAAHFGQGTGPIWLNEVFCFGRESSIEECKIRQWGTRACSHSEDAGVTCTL
Experimental: as §4, §5

[4] = target: T2, endogenously expressed human MSR1 on PMA-treated THP-1 cells (Homo sapiens, UniProt P21757); test: Electrochemiluminescence (ECL) antibody binding assay on cells
T2 construct: endogenously expressed human MSR1; endogenous in cells; host or cells: THP-1 cells treated with 200 nM PMA
T2 sequence (P21757 1-451): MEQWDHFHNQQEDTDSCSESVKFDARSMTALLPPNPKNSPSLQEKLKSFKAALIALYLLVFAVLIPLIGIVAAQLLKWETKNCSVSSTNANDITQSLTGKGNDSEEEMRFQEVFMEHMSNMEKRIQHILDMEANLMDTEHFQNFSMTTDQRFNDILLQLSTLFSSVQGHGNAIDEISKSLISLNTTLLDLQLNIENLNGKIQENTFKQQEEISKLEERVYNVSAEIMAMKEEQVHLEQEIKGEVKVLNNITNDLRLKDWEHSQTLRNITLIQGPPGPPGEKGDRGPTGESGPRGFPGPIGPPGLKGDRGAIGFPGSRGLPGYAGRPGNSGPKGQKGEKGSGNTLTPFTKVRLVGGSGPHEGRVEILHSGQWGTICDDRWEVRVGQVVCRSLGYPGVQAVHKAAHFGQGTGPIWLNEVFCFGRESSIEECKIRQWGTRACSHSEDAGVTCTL
Experimental: as §1, §2, §3

[5] = tested on: MSR1 negative B16F10.9 cells; test: Flow cytometry cell surface binding, MSR1 negative cells; design: species or system mouse
Experimental: Relative cell surface binding of the anti-MSR1 antibodies to mouse MSR1 expressing cells was determined by flow cytometry using MSR1 positive RAW264.7 cells (ATCC, Catalog #TIB-71) and MSR1 negative B16F10.9 cells (Lin et al. 1998. PNAS 95:8829-8834). For the assay, cells were plated in PBS without calcium and magnesium (VWR Cat #45000-446) and 2% FBS (Saradigm Cat #1500-500) (Staining Buffer) in 96 well V-bottom plates (Axygen Scientific, Cat #P-96-450-V-C-S). To block binding to Fc receptors, RAW264.7 cells were incubated for 30 minutes at 4° C. with 500 μg/mL mouse IgG (Jackson ImmunoResearch, Cat #015-000-003) diluted in staining buffer, while B16F10.9 cells remained in staining buffer. Following Fc receptor blocking, 10 μg/mL of anti-MSR1 antibodies or an isotype control antibody were added to the cells and were subsequently incubated for 30 minutes on ice. For a positive control, a commercial anti-mouse MSR1 (Sino Biological, Cat #50129-R004) antibody was used, while a rabbit IgG antibody (Thermo Scientific, Cat #26102) was used as a negative control. […] Cells were subsequently washed and fixed using a 50% solution of Cytofix (BD Biosciences, Cat #554655) diluted in PBS. […] The signal to noise (S/N) was determined by calculating the ratio of the anti-MSR1 antibodies or the control antibodies MFI to the unstained sample MFI (Table 16).

[6] = 37° C., antibody-capture format
[7] = 37° C., antibody-capture format, * = no dissociation observed, kd manually fixed at 1.00E−05
[8] = Biacore, 25° C., * no dissociation observed, kd fixed at 1.00E−05

B1: H1H21234N-N297Q: "An anti-MSR1 antibody H1H21234N containing a N297Q mutation, which eliminates N-linked glycosylation of the Fc at this site" (antibody, V domains shown)
VH: QVQLQESGPGLVKPSETLSLTCTVTGGSISRNYWSWIRQPPGKGLEWIGYIYYSGSIDYNPSLKSRVTISVDTSKNQFSLKLSSMTAADTAVYYCARDRWNWKYGMDVWGQGTTVIVSS
VL: EIVLTQSPGTLSLSPGERATLSCRASQTVRNNYLAWYHQKPGQAPRLLIYGASSRATGIPDRFSGSGSGTDFTLTISRLEPEDFTVYYCHQYGNSPWTFGQGTKMEIKR
Ratio of 11 nM Antibody Binding Signal (RLU) to isotype control, HEK293 [1]: 9 | ka [2, 6]: 750000 M⁻¹ s⁻¹ | kd [2, 7]: 1.00E−05* s^−1 | ka ([2]; Biacore, 25° C.): 408000 M⁻¹ s⁻¹ | kd [2, 8]: 1.95e-05 s⁻¹ | ka [3, 6]: 787000 M⁻¹ s⁻¹ | kd [3, 7]: 1.00E−05* s^−1 | ka ([3]; Biacore, 25° C.): 497000 M⁻¹ s⁻¹ | kd [3, 8]: 1.00E−05* s^−1 | Ratio of 11 nM Antibody Binding Signal (RLU) to isotype control, PMA-treated THP-1 [4]: 25 | B16F10.9 MFI ([5]; 10 μg/mL antibody, flow cytometry): 3499 | B16F10.9 S/N ([5]; ratio of antibody MFI to unstained sample MFI): 1
